Reference: patent US20040229797A1

Target: HA-tagged Filamin 1 (HA-Filamin 1)
Test: cell-based or functional assay

- relative amount of recombinant Filamin 1 and GFP: 1.8
Substance: S-FILIP (short form Filamin-interacting protein) (from UniProt Q8K4T4 248-965)
